Consider 17 sequences from the supplement of paper PMC9170038.

This data set relates to MS2 coat protein. The experiment in a line: apparent KD of MS2 coat protein; higher = weaker reporter binding. Conditions: Eterna round: R107. An outline of the steps: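 With or without constant ligand, designed RNA switches in 100 mM Tris-HCl pH 7.5, 80 mM KCl and 4 mM MgCl2 were titrated with SNAP-549-labelled MS2 coat protein. Concentrations went up in twofold steps from 0.7 or 1.5 nM to 3 µM. The switches had been transcribed on-chip from Illumina sequencing clusters, and apparent KD is the per-design median of normalised cluster binding-curve fits.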

[1] abbreviates: input ligand: theophylline 20 uM.
Setting [2] is: input ligand: theophylline 2 mM.
The mark [3] stands for this setting: input ligand: tryptophan 2.4 mM.

Regarding “GGUGGACUUUCGGCCGCCACUGAGAGAGUCGUGUGAACAUGAGGAUCACCCAUGUAAUAUAUAUACAGGACCGGGAGGGUUGUCC [4.O]”, the “apparent KD of MS2 coat protein” value is 0.0206 µM (input ligand: arginine 13.2 mM), 0.0287 µM under setting [1] and 0.025 µM under setting [2].
Turning to “GGUGGCUGGAUUGAUACCAGCCACCACCGAUAGACCACAUGAGGAUCACCCAUGUUGGGUGGCCCUUGGCAGCAGUCCAGCUGCC [#1 Same State - Theophylline B Attempt #9 (HarryS)]”, the “apparent KD of MS2 coat protein” value is, setting by setting: (input ligand: arginine 13.2 mM) 0.0705 µM; (input ligand: none) 0.388 µM; under setting [1], 0.649 µM; under setting [2], 0.828 µM; under setting [3], 0.886 µM.
“GGUGGGACUUGUGAUACCAGCCCAGUUCUAAUCGAACUGCACAUGAGGAUCACCCAUGUCGGCCCUUGGCAGCAUGAGUAUUUAU [Esceesor]”: the “apparent KD of MS2 coat protein” value reads like this: (input ligand: arginine 13.2 mM) 0.146 µM; under setting [1], 0.16 µM; under setting [3], 0.326 µM.
Turning to “GGUUACUCUACGGCCGCCACUGGGCAUGUAAAUAACAUGAGGAUCACCCAUGUGGAAUAAAAUUACAGGACCGGGUAGUGUAACC [Tryptophan B 22]”, the “apparent KD of MS2 coat protein” value (input ligand: arginine 13.2 mM) amounted to 0.105 µM, the “apparent KD of MS2 coat protein” value under setting [1] is 0.27 µM and the “apparent KD of MS2 coat protein” value under setting [2] worked out at 0.352 µM.
For “GUAGCUGAGUGUGAUACCAGAAACGACGUCCUUUAUCAUAACAUGAGGAUCACCCAUGUCUUCCCUUGGCAGCACUUUUCGGUCU [theeternabot_exclusion_MS2_Theo_B_24]”, the “apparent KD of MS2 coat protein” value came out at 0.0296 µM (input ligand: arginine 13.2 mM), 0.0536 µM under setting [1] and 0.0347 µM under setting [3].
For “GUAGGUCUCAUGGGUGGACCUACACUGGAAGGAGCGAGCGAAAGCUCAGGUAGGUCGCCAGAAACAUGAGGAUCACCCAUGUAAU [(A)''-(M)'-(A)'-(Arg1)-(Arg2)-(M1)-(M2)_Design1]”, the “apparent KD of MS2 coat protein” value (input ligand: arginine 13.2 mM) turned out to be 0.0723 µM; the “apparent KD of MS2 coat protein” value (input ligand: none) was found to be 0.36 µM; the “apparent KD of MS2 coat protein” value under setting [1] came to 0.144 µM; the “apparent KD of MS2 coat protein” value under setting [2] was 0.288 µM; the “apparent KD of MS2 coat protein” value under setting [3] was found to be 0.32 µM.
In the same order, the values of “GUCUGAGUCUGAAGGAGCGACAUGAGGAUCACCCAUGUCUCCCGUUAUGGGAGUUCCUUAGGUCAGGUAGGUCGCAGACUCAGAC [#1 Exclusion - Arginine B Attempt #26 (Inspired by Omei)]” are 0.0609 µM, 0.145 µM, 0.139 µM, 0.172 µM and 0.108 µM.
In the same order, the values of “GUGUACAUGAGGAUCACCCAUGUCGAGUUACGAGGACCGGUACGGCCGCCACUCGGCGGCUCGACACGGAUAGCGGUGCGUUGCU [Exclusion - Tryptophan A]” are 0.0182 µM, 0.0332 µM, 0.0408 µM, 0.0354 µM and 0.129 µM.
With “UAAAACAUGAGGAUCACCCAUGUAAUUGAUACCAGAGUGAUGAUCCUCCCUUGGCAGCAAAUAACGCAUUGAUUACAAUGCGAAA [Mat - Same State Theophlline A - Mod of Eli - D27]”, the “apparent KD of MS2 coat protein” value by setting is: (input ligand: arginine 13.2 mM) 0.0279 µM; under setting [1], 0.105 µM; under setting [3], 0.035 µM.
For the sequence “UAAACUACACAUGAGGAUCACCCAUGUGGCCGAGGACCGGUACGGCCGCCACUCGUGUGUUAAUAAUAGAACUGCAAGGUUCUGU [Enindidiso]”, the “apparent KD of MS2 coat protein” value came to 0.0756 µM (input ligand: arginine 13.2 mM), 0.228 µM under setting [1] and 0.272 µM under setting [2].
On to “UAAUAAAUAAAUCCAAGGUGAAGGUCAGAUACCAGCCAGAUAACUGGCCCUUGGCAGCUGAAUAAACUUGAGGAUCACCCAGGUA [TheoAS 27 #OpenEnded #MS2Late #AlternativeMS2]”, for which the “apparent KD of MS2 coat protein” value is, setting by setting: (input ligand: arginine 13.2 mM) 0.0454 µM; (input ligand: none) 0.0631 µM; under setting [1], 0.135 µM; under setting [2], 0.548 µM; under setting [3], 0.0556 µM.
“UAAUAAAUAAAUCCAAGGUGAAGGUCAGAUACCAGCCAGAUAACUGGCCCUUGGCAGCUGAAUAAGCUUGAGGAUCACCCAAGUA [TheoAS 26 #OpenEnded #MS2Late #AlternativeMS2]”: the “apparent KD of MS2 coat protein” value (input ligand: arginine 13.2 mM) was determined as 0.0275 µM, the “apparent KD of MS2 coat protein” value under setting [1] was 0.0684 µM, the “apparent KD of MS2 coat protein” value under setting [2] was found to be 0.275 µM and the “apparent KD of MS2 coat protein” value under setting [3] turned out to be 0.0328 µM.
In the case of “UAAUAAAUAAAUCCAAGGUGUAGGUCAGAUACCAGCCAGAUAACUGGCCCUUGGCAGCUGAAUAAACCUGAGGAACACCCAGGUA [TheoAS 24 #OpenEnded #MS2Late #AlternativeMS2]”, the “apparent KD of MS2 coat protein” value (input ligand: arginine 13.2 mM) was 0.0267 µM; the “apparent KD of MS2 coat protein” value (input ligand: none) was 0.0316 µM; the “apparent KD of MS2 coat protein” value under setting [1] came to 0.0495 µM; the “apparent KD of MS2 coat protein” value under setting [2] was 0.197 µM; the “apparent KD of MS2 coat protein” value under setting [3] was found to be 0.0273 µM.
Turning to “UAAUAAUUCCUCAUGUCACGAGUGGCAUAACGAGGACCGGUACGGCCGCCACUCGAACAUGAGGAUCACCCAUGUAGCCACUCGA [M'-T'-T-MS2-T'' - Design 4]”, the “apparent KD of MS2 coat protein” value came out at 0.0567 µM (input ligand: arginine 13.2 mM), 0.286 µM under setting [1] and 0.474 µM under setting [2].
Consider “UACAGUACAACAGAUACCAGACAGUACUCUAGAUUGCAACAUGAGGAUCACCCAUGUAUAGUCCCUUGGCAGCUGUAAUGGGUGA [Theo B SS s1]”, for which the “apparent KD of MS2 coat protein” value reads like this: (input ligand: arginine 13.2 mM) 0.142 µM; under setting [1], 0.195 µM; under setting [3], 0.0772 µM.
On the same counts, the results for “UACAUGAGGAUCACCCAUGUAUAGAGGGAUACCAGUGUCAGUGAGCACCCUUGGCAGCCCGCGAACAAUGGGUGCGCUAUAUAGU [#20 Exclusion-TheophyllineA]” are 0.0182 µM, 0.0468 µM and 0.028 µM.
Regarding “UACAUGAGGAUCACCCAUGUAUUGCCGGUACGAGGACCGGUACGGCCGCCACUCGGAGCAUGAGGAUCACCCAUGUGCUGCUAUG [Same State Trypophan A GF 24]”, the “apparent KD of MS2 coat protein” value (input ligand: arginine 13.2 mM) was found to be 0.0355 µM, the “apparent KD of MS2 coat protein” value under setting [1] was 0.0671 µM and the “apparent KD of MS2 coat protein” value under setting [2] came to 0.0837 µM.
